Experimental findings from publication PMC12009402 (Scientific Reports, 2025) are described below.

The data set deals with the molecule itself. As to the kind of experiment: AUC.

B1: hCCL5-K25S (ligand)
chain: SPYSSDTTPCCFAYIARPLPRAHISEYFYTSGKCSNPAVVFVTRKNRQVCANPEKKWVREYINSLEMS
One may read the stoichiometry N as the number of molecules, sites or subunits per partner or assembly. Consider B1, for which the “stoichiometry N” value was around 200.
